From patent US20090209453A1 (UNIVERSITY OF MEDICINE AND DENTISTRY OF NEW JERSEY, published 2009)

Key:
rat LH receptor [1] = biological target: T1, rat LH receptor (rat, UniProt P16235 27-700); assay: 125I-hCG competition on rat LH receptors
T1 construct: whole, on cells; CHO cells engineered to (over)express the rat LH receptor; also called rat lutropin receptor

rat LH receptor [2] = biological target: T1, rat LH receptor; assay: competition with radioiodinated hCG for rat LH receptors

T1 sequence (P16235 27-700): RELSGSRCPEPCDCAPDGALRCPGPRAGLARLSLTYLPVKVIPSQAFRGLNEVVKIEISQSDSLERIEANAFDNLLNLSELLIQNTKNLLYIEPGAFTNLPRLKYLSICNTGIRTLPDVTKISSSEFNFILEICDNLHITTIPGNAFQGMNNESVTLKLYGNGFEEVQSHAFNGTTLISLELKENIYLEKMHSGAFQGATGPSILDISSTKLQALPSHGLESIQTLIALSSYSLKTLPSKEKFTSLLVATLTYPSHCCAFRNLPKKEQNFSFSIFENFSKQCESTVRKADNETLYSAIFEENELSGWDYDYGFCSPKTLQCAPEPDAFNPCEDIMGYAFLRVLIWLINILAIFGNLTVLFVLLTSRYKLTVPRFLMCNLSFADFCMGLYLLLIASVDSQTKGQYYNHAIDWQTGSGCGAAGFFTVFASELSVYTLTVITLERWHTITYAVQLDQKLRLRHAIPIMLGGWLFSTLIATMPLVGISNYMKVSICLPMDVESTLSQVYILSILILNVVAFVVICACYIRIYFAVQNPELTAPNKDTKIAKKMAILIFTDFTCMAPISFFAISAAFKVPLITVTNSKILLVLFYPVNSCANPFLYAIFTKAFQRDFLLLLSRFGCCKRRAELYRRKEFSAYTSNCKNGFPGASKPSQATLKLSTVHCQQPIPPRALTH

| Binder | binding result (rat LH receptor [1]) | binding result (rat LH receptor [2]) |
| --- | --- | --- |
| pMB2472+pMB2672 heterodimer (crosslink α86-β106) (ligand, Intersubunit disulfide between alpha Cys86 and beta Cys106 (the beta C-terminus). N-linked glycans remain, except at alpha position 52 (N52D). Beta Cys26 is free., The text says that pMB1244 or pMB2472 was the α-subunit construct; also called pMB2472 and pMB2672) alpha: not shown beta: SKEPLRPRCRPINATLAVEKEGCPVCITVNTTICAGYCPTMTRVLQGVLPALPQVVCNYRDVRFESIRLPGCPRGVNPVVSYAVALSCQCALCRRSTTDCGGPKDC | binds | – |
| pMB2472+pMB2673 heterodimer (crosslink α86-β108) (ligand, Intersubunit disulfide between alpha Cys86 and beta Cys108 (the beta C-terminus). N-linked glycans remain, except at alpha position 52 (N52D). Beta Cys26 is free., The text says that pMB1244 or pMB2472 was the α-subunit construct; also called pMB2472 and pMB2673) alpha: not shown beta: SKEPLRPRCRPINATLAVEKEGCPVCITVNTTICAGYCPTMTRVLQGVLPALPQVVCNYRDVRFESIRLPGCPRGVNPVVSYAVALSCQCALCRRSTTDCGGPKDHPC | binds | – |
| pRM917+pMB2545 crosslinked heterodimer (ligand, Potential intersubunit disulfides α5-β8 and α86-β102; N-linked glycans on both subunits (none at α52)., Potential disulfides α5-β8 and α86-β102; also called pRM917 and pMB2545; copies: 1 + 1) alpha: not shown beta: SRPCCRPINATLAVEKEGCPVAITVNTTICAGYCPTMTRVLQGVLPALPQVVCNYRDVRFESIRLPGCPRGVNPVVSYAVALSCQCALCRRSTTDCGC | – | binds |
